# From US20110039770A1 (PHARMAGAP, published 2011)
# T1: PKC-ε (endogenous, IMR-32 lysate) (human, UniProt Q02156 1-737)
# T1 construct: Band 1 and Band 2 (alternate splicing variants, not identified further) are kept under one molecule; the band is named in the assay field of each row; also called PKC-epsilon; PKC-ε Band 1
# T1 sequence (looked up): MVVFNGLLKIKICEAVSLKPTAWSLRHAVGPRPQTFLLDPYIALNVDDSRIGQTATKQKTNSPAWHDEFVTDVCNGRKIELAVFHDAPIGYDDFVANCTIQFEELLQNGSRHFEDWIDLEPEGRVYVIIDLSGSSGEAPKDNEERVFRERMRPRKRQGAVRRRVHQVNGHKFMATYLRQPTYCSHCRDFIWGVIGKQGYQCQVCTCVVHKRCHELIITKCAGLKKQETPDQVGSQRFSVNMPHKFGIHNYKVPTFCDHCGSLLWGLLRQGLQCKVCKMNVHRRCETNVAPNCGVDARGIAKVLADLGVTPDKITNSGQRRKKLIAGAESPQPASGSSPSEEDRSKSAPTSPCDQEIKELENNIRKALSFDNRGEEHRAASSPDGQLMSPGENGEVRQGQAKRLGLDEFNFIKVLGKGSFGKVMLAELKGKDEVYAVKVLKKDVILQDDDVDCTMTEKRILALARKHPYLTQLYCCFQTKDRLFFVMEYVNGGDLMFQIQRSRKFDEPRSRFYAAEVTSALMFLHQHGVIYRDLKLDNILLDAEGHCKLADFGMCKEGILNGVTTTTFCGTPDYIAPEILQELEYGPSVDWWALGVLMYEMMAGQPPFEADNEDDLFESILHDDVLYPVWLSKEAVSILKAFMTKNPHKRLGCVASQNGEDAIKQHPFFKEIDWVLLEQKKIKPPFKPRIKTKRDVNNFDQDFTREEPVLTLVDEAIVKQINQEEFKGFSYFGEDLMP
# Tests used:
# PKC-δ (purified isoform) [1] = molecular target: T2, PKC-δ (purified isoform); assay: competitive ELISA, coated purified PKC-δ, vs anti-PKC δ (SC-213); PRE 200 µM
# T2 construct: also called PKC-delta
# Summary of the method: (§1)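 Plates coated overnight at 4 °C with purified PKC isoform at 250 ng/mL, blocked, then exposed 1 h at room temperature to PRE (from 20 mM DMSO stock) diluted in PBS with Ca/Mg. Bound isoform antibody detected with AP-conjugated secondary and pNPP (8 min; δ 15–20 min), absorbance 405 nm.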
# PKC-α (purified isoform) [2] = molecular target: T3, PKC-α (purified isoform) (Homo sapiens (Human), UniProt P17252 2-672); assay: competitive ELISA, coated purified PKC-α, vs anti-PKC α (SC-208); PRE 200 µM
# T3 construct: also called purified PKC-alpha; commercially purified PKC-alpha
# Summary of the method: as §1
# PKC-δ (purified isoform) [3] = molecular target: T2, PKC-δ (purified isoform); assay: competitive ELISA, coated purified PKC-δ, vs anti-PKC δ (SC-213); PRE 50 µM
# Summary of the method: as §1
# [4] = molecular target: T4, PKC-βI (purified isoform) (Homo sapiens (Human), UniProt P05771 2-671); assay: competitive ELISA, coated purified PKC-βI, vs anti-PKC βI (SC-209); PRE 50 µM
# T4 construct: also called PKC-beta I; PKC beta 1
# PKC-α (purified isoform) [5] = molecular target: T3, PKC-α (purified isoform); assay: competitive ELISA, coated purified PKC-α, vs anti-PKC α (SC-208); PRE 50 µM
# Summary of the method: as §1
# [6] = molecular target: T1, PKC-ε (endogenous, IMR-32 lysate); assay: WB competition Protocol B, IMR-32 extract, vs anti-PKC-ε Ab; PKC-ε Band 2; 50 µg peptide
# Procedure: (§2) The ability of the peptides PRE 2 and PRE 3 (see Table 4) to interfere with the binding of a PKC-α-specific polyclonal antibody (Santa Cruz Biotechnology, Inc.) to PKC-α was determined using a modified version of the protocol outlined above in which the test peptide was added directly to the cell extract prior to electrophoresis at a concentration of either 5× or 15× the concentration of the protein applied to each well of the gel for the Western blots (20 μg).
# (§3) Peptides PRE 2, PRE 3 and PRE 4 (see Table 4) were tested for their ability to interfere with the binding of isoform-specific polyclonal antibodies (Santa Cruz Biotechnology, Inc.) to […] using the general protocol described in Example 3. Two bands, representing alternate splicing variants of PKC-ε, were identified on the Western blot using this anti-PKC-ε antibody.
# PKC-δ (purified isoform) [7] = molecular target: T2, PKC-δ (purified isoform); assay: competitive ELISA, coated purified PKC-δ, vs anti-PKC δ (SC-213); PRE 100 µM
# Summary of the method: as §1
# [8] = molecular target: T1, PKC-ε (endogenous, IMR-32 lysate); assay: WB competition Protocol B, IMR-32 extract, vs anti-PKC-ε Ab; PKC-ε Band 2; 20 µg peptide
# Procedure: as §2, §3
# [9] = molecular target: T4, PKC-βI (purified isoform); assay: competitive ELISA, coated purified PKC-βI, vs anti-PKC βI (SC-209); PRE 200 µM
# [10] = molecular target: T1, PKC-ε (endogenous, IMR-32 lysate); assay: WB competition Protocol B, IMR-32 extract, vs anti-PKC-ε Ab; PKC-ε Band 1; 50 µg peptide
# Procedure: as §2, §3
# [11] = molecular target: T5, PKC-βII (purified isoform) (Homo sapiens (Human), UniProt P05771 2-621); assay: competitive ELISA, coated purified PKC-βII, vs anti-PKC βII (SC-210); PRE 50 µM
# T5 construct: also called PKC-beta II; PKC beta 2
# Procedure: Greiner 96 well ELISA plates were coated with the appropriate PKC isoform diluted in PBSN (PBS with Calcium/Magnesium+0.05% Sodium azide w/w). 50 μL/well at 250 ng/mL was used. Control wells contained PBSN only. Plates were incubated overnight at 4° C.
# The plates were washed 3 times with 200 μL of dH₂O per well, then 100 μL of blocking solution was added per well and the plate incubated for 1 h at 37° C. The washing steps with dH₂O were repeated and 50 μL of the appropriate PRE solution (PRE stock solution [20 mM in DMSO] diluted in PBSN) was added and the plate incubated for 1 h at room temperature.
# 50 μL of 1:1000 dilution of Alkaline Phosphatase (AP) conjugated antibody (anti-rabbit for all except zeta, which was anti-goat) was then added and the plate incubated for 1 h at room temperature. Washing with dH₂O was then repeated. Finally, 100 μL of pNPP solution in pNPP buffer (2 mM MgCl₂, 100 mM Sodium bicarbonate in water, pH 9.8) was added to all wells and incubated for 8 minutes for α, βI, βII ε, and ζ, or for 15-20 mins for δ (until sufficient coloration is observed). The reaction was stopped by addition of Stop solution (2N NaOH) and the absorbance at 405 nm was read on a Galaxy Plate reader.
# T2 sequence (Q05655 whole entry, stated change not applied, canonical isoform): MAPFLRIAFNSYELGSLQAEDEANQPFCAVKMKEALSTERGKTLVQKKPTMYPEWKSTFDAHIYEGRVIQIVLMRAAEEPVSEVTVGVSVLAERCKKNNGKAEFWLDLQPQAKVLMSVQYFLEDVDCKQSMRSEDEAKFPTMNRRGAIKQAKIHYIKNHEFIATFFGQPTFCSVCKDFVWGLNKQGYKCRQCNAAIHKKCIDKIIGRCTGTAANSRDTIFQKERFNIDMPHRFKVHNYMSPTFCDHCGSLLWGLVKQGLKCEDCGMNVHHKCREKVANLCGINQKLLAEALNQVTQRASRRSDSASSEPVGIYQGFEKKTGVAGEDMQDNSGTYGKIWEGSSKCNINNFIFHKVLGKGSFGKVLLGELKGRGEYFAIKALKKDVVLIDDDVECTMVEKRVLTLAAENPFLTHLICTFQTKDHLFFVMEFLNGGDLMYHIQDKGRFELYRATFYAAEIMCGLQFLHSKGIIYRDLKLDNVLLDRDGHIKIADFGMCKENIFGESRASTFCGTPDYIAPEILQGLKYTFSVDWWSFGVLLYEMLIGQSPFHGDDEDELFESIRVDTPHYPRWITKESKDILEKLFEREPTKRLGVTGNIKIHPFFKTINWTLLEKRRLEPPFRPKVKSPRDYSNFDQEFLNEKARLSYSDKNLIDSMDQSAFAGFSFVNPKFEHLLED
# T4 sequence (P05771 2-671 limits assumed): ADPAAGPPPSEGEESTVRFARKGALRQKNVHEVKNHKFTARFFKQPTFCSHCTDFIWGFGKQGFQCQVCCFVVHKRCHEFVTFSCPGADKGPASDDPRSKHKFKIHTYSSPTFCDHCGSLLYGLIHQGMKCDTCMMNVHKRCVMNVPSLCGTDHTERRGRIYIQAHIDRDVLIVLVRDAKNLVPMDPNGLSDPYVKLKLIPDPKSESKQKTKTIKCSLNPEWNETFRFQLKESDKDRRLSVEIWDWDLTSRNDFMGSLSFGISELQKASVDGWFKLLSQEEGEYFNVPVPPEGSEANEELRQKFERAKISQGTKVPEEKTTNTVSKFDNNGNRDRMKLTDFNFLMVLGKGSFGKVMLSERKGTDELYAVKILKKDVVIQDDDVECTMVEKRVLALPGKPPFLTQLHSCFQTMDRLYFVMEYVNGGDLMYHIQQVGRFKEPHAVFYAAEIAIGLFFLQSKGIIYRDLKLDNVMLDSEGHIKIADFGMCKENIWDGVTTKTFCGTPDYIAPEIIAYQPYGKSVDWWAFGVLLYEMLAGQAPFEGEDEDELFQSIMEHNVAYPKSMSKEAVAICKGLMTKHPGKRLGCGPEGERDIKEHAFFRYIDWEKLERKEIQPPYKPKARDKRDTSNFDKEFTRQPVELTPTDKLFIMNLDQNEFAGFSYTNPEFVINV
# T5 sequence (P05771 other isoform, or with tags, fused parts or gaps limits assumed): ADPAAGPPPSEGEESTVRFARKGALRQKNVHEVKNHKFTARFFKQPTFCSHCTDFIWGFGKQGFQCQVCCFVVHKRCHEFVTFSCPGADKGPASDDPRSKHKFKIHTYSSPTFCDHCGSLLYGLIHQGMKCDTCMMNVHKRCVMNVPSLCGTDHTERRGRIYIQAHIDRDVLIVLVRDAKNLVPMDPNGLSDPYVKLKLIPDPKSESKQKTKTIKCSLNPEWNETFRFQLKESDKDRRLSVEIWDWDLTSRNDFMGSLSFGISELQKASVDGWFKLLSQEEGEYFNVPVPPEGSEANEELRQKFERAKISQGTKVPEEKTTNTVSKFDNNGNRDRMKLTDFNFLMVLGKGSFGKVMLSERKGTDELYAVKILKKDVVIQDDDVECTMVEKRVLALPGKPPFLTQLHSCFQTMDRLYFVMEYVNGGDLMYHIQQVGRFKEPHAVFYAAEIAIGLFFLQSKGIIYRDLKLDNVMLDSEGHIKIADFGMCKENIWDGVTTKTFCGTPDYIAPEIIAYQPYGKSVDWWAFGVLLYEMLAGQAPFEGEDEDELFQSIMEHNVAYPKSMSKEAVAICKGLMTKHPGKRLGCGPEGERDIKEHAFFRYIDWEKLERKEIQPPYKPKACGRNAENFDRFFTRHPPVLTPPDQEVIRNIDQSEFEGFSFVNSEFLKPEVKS
binder,measurement,setting,value
Ac-KDAQNLIGISI-NH2 (also called peptide PRE 4) [PRE 4],"relative binding capacity (100-%n, DMSO subtracted)",PKC-δ (purified isoform) [1],17.3%
same,"relative binding capacity (100-%n, DMSO subtracted)",PKC-α (purified isoform) [2],22.8%
same,"relative binding capacity (100-%n, DMSO subtracted)",PKC-δ (purified isoform) [3],29.2%
same,"relative binding capacity (100-%n, DMSO subtracted)",[4],6.02%
same,"relative binding capacity (100-%n, DMSO subtracted)",PKC-α (purified isoform) [5],6.46%
same,Band Intensity,[6],0
same,Inhibition (%),[6],100%
same,Relative Intensity (%),[6],0%
same,"relative binding capacity (100-%n, DMSO subtracted)",PKC-δ (purified isoform) [7],30.7%
same,Band Intensity,[8],153
same,Inhibition (%),[8],46.6%
same,Relative Intensity (%),[8],53.3%
same,"relative binding capacity (100-%n, DMSO subtracted)",[9],7.46%
same,Band Intensity,[10],0
same,Inhibition (%),[10],100%
same,Relative Intensity (%),[10],0%
same,"relative binding capacity (100-%n, DMSO subtracted)",[11],2.69%
